± gives the uncertainty stated by the source.
Assay: self-splicing fitness, log relative to wild type (ln ratio); higher = more splicing; Tetrahymena group I intron in knt gene, E. coli kanamycin selection, DiMSum; sequences stand for … in CUCUCU…GGAGGGAAAAGUUAUCAGGCAUGCACCUGGUAGCUAGUCUUUAAACCAAUAGAUUGCAUCGGUUUAAAAGGCAAGACCGUCAAAUUGCGGGAAAGGGGUCAACAGCCGUUCAGUACCAAGUCUCAGGGGAAACUUUGAGAUGGCCUUGCAAAGGGUAUGGUAAUAAGCUGACGGACAUGGUCCUAACCACGCAGCCAAGUCCUAAGUCAACAGAUCUUCUGUUGAUAUGGAUGCAGUUCACAGACUAAAUGUCGGUCGGGGAAGAUGUAUUCUUCUCAUAAGAUAUAGUCGGACCUCUCCUUAAUGGGAGCUAGCGGAUGAAGUGAUGCAACACUGGAGCCGCUGGGAACUAAUUUGUAUGCGAAAGUAUAUUGAUUAGUUUUGGAGUACUCGUGGUCG
Procedure, shortened: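 The eight P1ex-region nucleotides of an intron in the knt kanamycin-resistance gene on pET-22b(+) were all randomised and the library put into E. coli BL21(DE3). Six replicate transformations were grown overnight at 37°C or 30°C on LB agar with or without 25 μg/mL kanamycin, together with 100 μg/mL carbenicillin, 50 μM IPTG and 0.2% rhamnose. Colonies were pooled and amplicon-sequenced on an Illumina HiSeq 2500. Fitness from DiMSum is the error-weighted combination of wild-type-normalised replicate fold changes, kanamycin over none.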

| Sequence | self-splicing fitness (ln) (30 °C) | self-splicing fitness (ln) (37 °C) |
| --- | --- | --- |
| UCACAGCAAUAUUACGGCAU | -4.11 ± 0.22 | -2.26 ± 0.14 |
| UCACAGCAAUAUUACGGGCG | -0.948 ± 0.094 | -1.07 ± 0.093 |
| UCACAGCAAUAUUACGGUAC | -3.57 ± 0.24 | -2.6 ± 0.22 |
| UCACAGCAAUAUUACGGUCC | -2.85 ± 0.21 | -2.2 ± 0.2 |
| UCACAGCAAUAUUACGUCAC | -3.17 ± 0.18 | -1.64 ± 0.13 |
| UCACAGCAAUAUUACGUGCA | -0.403 ± 0.067 | 0.0083 ± 0.085 |
| UCACAGCAAUAUUACGUUCG | -1.07 ± 0.061 | -0.209 ± 0.09 |
| UCAGAGCAAUAUUACGAAGC | -2.55 ± 0.44 | – |
| UCAGAGCAAUAUUACGACAG | -2.53 ± 0.19 | -2.92 ± 0.36 |
| UCAGAGCAAUAUUACGAGGA | -2.47 ± 0.15 | -1.83 ± 0.16 |
| UCAGAGCAAUAUUACGAUCU | -3.62 ± 0.21 | -2.88 ± 0.28 |
| UCAGAGCAAUAUUACGCAAG | -1.74 ± 0.42 | -1.48 ± 0.29 |
| UCAGAGCAAUAUUACGCCCG | -2 ± 0.47 | – |
| UCAGAGCAAUAUUACGCGCC | -2.37 ± 0.46 | – |
| UCAGAGCAAUAUUACGCGCU | – | -1.62 ± 0.29 |
| UCAGAGCAAUAUUACGCUGU | -2.98 ± 0.26 | – |
| UCAGAGCAAUAUUACGGAAG | -3.05 ± 0.26 | -3.41 ± 0.37 |
| UCAGAGCAAUAUUACGGAUG | -3.87 ± 0.38 | -2.06 ± 0.35 |
| UCAGAGCAAUAUUACGGCGA | -0.324 ± 0.072 | -0.417 ± 0.076 |
| UCAGAGCAAUAUUACGGGCA | -3.11 ± 0.29 | -1.77 ± 0.17 |
| UCAGAGCAAUAUUACGGUGU | -4.01 ± 0.3 | -2.25 ± 0.18 |
| UCAGAGCAAUAUUACGUAUA | -3.46 ± 0.27 | -2.44 ± 0.23 |
| UCAGAGCAAUAUUACGUCUA | -3.04 ± 0.29 | -2.35 ± 0.3 |
| UCAGAGCAAUAUUACGUGUA | -2.57 ± 0.23 | -2.18 ± 0.19 |
| UCAGAGCAAUAUUACGUUAA | -3.58 ± 0.35 | -2.61 ± 0.34 |

| Sequence | self-splicing fitness (ln) (30 °C) | self-splicing fitness (ln) (37 °C) |
| --- | --- | --- |
| UCAGAGCAAUAUUACGUUGU | -3.38 ± 0.2 | -3.51 ± 0.35 |
| UCAUAGCAAUAUUACGAAAG | – | -1.84 ± 0.47 |
| UCAUAGCAAUAUUACGAAAU | -2.86 ± 0.23 | -2.58 ± 0.28 |
| UCAUAGCAAUAUUACGACAG | -1.49 ± 0.13 | -1.26 ± 0.15 |
| UCAUAGCAAUAUUACGAGUU | -2.66 ± 0.34 | -1.56 ± 0.36 |
| UCAUAGCAAUAUUACGCCAU | -3.49 ± 0.36 | -1.49 ± 0.33 |
| UCAUAGCAAUAUUACGCGAG | -1.52 ± 0.15 | -0.957 ± 0.15 |
| UCAUAGCAAUAUUACGCUUA | – | -1.21 ± 0.26 |
| UCAUAGCAAUAUUACGGAUC | -3.73 ± 0.28 | -2.38 ± 0.22 |
| UCAUAGCAAUAUUACGGCGA | -0.178 ± 0.07 | -0.102 ± 0.083 |
| UCAUAGCAAUAUUACGGCGC | -2.63 ± 0.31 | – |
| UCAUAGCAAUAUUACGGGGA | -1.54 ± 0.1 | -0.546 ± 0.12 |
| UCAUAGCAAUAUUACGGUCU | -3.49 ± 0.16 | -2.31 ± 0.14 |
| UCAUAGCAAUAUUACGGUUA | -1.37 ± 0.14 | -0.36 ± 0.11 |
| UCAUAGCAAUAUUACGUAAU | -3.87 ± 0.48 | -2.61 ± 0.28 |
| UCAUAGCAAUAUUACGUGUU | -3.81 ± 0.14 | -1.57 ± 0.1 |
| UCAUAGCAAUAUUACGUUCU | -2.79 ± 0.27 | -2.32 ± 0.21 |
| UCCAAGCAAUAUUACGAAAC | -3.13 ± 0.22 | -2.95 ± 0.35 |
| UCCAAGCAAUAUUACGACAU | -3.54 ± 0.021 | -2.31 ± 0.036 |
| UCCAAGCAAUAUUACGAUUA | -0.942 ± 0.11 | -0.817 ± 0.11 |
| UCCAAGCAAUAUUACGCACC | -4.36 ± 0.32 | -1.94 ± 0.21 |
| UCCAAGCAAUAUUACGCAGA | -1.58 ± 0.12 | -0.571 ± 0.088 |
| UCCAAGCAAUAUUACGCAUU | -4.05 ± 0.21 | -2.35 ± 0.23 |
| UCCAAGCAAUAUUACGCCAC | – | -1.13 ± 0.33 |
| UCCAAGCAAUAUUACGCCAG | – | -1.9 ± 0.28 |

| Sequence | self-splicing fitness (ln) (30 °C) | self-splicing fitness (ln) (37 °C) |
| --- | --- | --- |
| UCCAAGCAAUAUUACGCGAU | -4.34 ± 0.21 | -2.24 ± 0.17 |
| UCCAAGCAAUAUUACGCGCC | -3.47 ± 0.27 | -2.31 ± 0.32 |
| UCCAAGCAAUAUUACGCUCG | -4.74 ± 0.45 | -2.28 ± 0.49 |
| UCCAAGCAAUAUUACGCUCU | -3.44 ± 0.28 | -1.75 ± 0.18 |
| UCCAAGCAAUAUUACGGAAU | -3.72 ± 0.3 | -2.97 ± 0.33 |
| UCCAAGCAAUAUUACGGCCG | -2.7 ± 0.2 | -1.41 ± 0.16 |
| UCCAAGCAAUAUUACGGCGA | 0.214 ± 0.078 | 0.225 ± 0.086 |
| UCCAAGCAAUAUUACGUAAG | -4.14 ± 0.3 | -2.37 ± 0.21 |
| UCCAAGCAAUAUUACGUACU | -3.94 ± 0.39 | -2.54 ± 0.24 |
| UCCAAGCAAUAUUACGUAGU | -1.27 ± 0.068 | -0.483 ± 0.091 |
| UCCAAGCAAUAUUACGUAUA | -2.19 ± 0.094 | -1.29 ± 0.096 |
| UCCAAGCAAUAUUACGUCUA | -2.26 ± 0.13 | -0.9 ± 0.11 |
| UCCAAGCAAUAUUACGUGCC | -3.87 ± 0.36 | -2.28 ± 0.26 |
| UCCAAGCAAUAUUACGUGCU | -3.49 ± 0.22 | -2.76 ± 0.22 |
| UCCAAGCAAUAUUACGUGUG | -2.08 ± 0.066 | -1.75 ± 0.081 |
| UCCCAGCAAUAUUACGAAUC | -2.49 ± 0.26 | -1.93 ± 0.3 |
| UCCCAGCAAUAUUACGAGUG | -3.66 ± 0.18 | -1.79 ± 0.13 |
| UCCCAGCAAUAUUACGAUAC | -2.17 ± 0.19 | -2.45 ± 0.44 |
| UCCCAGCAAUAUUACGAUCG | -3.52 ± 0.3 | -2.79 ± 0.16 |
| UCCCAGCAAUAUUACGCAGA | -0.882 ± 0.06 | -0.0561 ± 0.073 |
| UCCCAGCAAUAUUACGCCCU | -2.07 ± 0.15 | -1.03 ± 0.21 |
| UCCCAGCAAUAUUACGCCGU | -3.11 ± 0.22 | -2.27 ± 0.21 |
| UCCCAGCAAUAUUACGCCUG | -3.13 ± 0.26 | -1.8 ± 0.23 |
| UCCCAGCAAUAUUACGCGGG | -2.66 ± 0.12 | -3.36 ± 0.18 |
| UCCCAGCAAUAUUACGCUAG | -3.45 ± 0.18 | -2.9 ± 0.34 |

| Sequence | self-splicing fitness (ln) (30 °C) | self-splicing fitness (ln) (37 °C) |
| --- | --- | --- |
| UCCCAGCAAUAUUACGGAAG | -3.24 ± 0.12 | -2.88 ± 0.23 |
| UCCCAGCAAUAUUACGGCGG | -2.91 ± 0.16 | -2.21 ± 0.18 |
| UCCCAGCAAUAUUACGGUAU | -1.24 ± 0.059 | -0.809 ± 0.08 |
| UCCCAGCAAUAUUACGGUUC | -2.43 ± 0.11 | -1.8 ± 0.14 |
| UCCCAGCAAUAUUACGGUUG | -2.97 ± 0.17 | -1.79 ± 0.15 |
| UCCCAGCAAUAUUACGUACA | -1.92 ± 0.14 | -0.819 ± 0.1 |
| UCCCAGCAAUAUUACGUCUU | -2.99 ± 0.14 | -2.76 ± 0.2 |
| UCCCAGCAAUAUUACGUGCA | -0.634 ± 0.06 | -0.597 ± 0.078 |
| UCCGAGCAAUAUUACGAAUG | -2.81 ± 0.17 | -2.94 ± 0.21 |
| UCCGAGCAAUAUUACGACUC | -3.61 ± 0.21 | -2.87 ± 0.34 |
| UCCGAGCAAUAUUACGAGUC | – | -2.16 ± 0.22 |
| UCCGAGCAAUAUUACGAUAA | -2 ± 0.22 | -2.41 ± 0.32 |
| UCCGAGCAAUAUUACGAUAG | -3.72 ± 0.24 | -2.22 ± 0.2 |
| UCCGAGCAAUAUUACGAUCA | – | -1.26 ± 0.25 |
| UCCGAGCAAUAUUACGAUUU | -3.56 ± 0.25 | -2.49 ± 0.44 |
| UCCGAGCAAUAUUACGCCAA | – | -2.4 ± 0.49 |
| UCCGAGCAAUAUUACGCGUA | -1.14 ± 0.098 | -0.936 ± 0.11 |
| UCCGAGCAAUAUUACGCUAG | -3.12 ± 0.31 | -2.75 ± 0.34 |
| UCCGAGCAAUAUUACGCUUU | -2.64 ± 0.26 | -3.01 ± 0.47 |
| UCCGAGCAAUAUUACGGACG | -3.59 ± 0.24 | -2.37 ± 0.25 |
| UCCGAGCAAUAUUACGGAGG | -2.66 ± 0.16 | -2.65 ± 0.24 |
| UCCGAGCAAUAUUACGGCAU | -2.13 ± 0.13 | -1.62 ± 0.097 |
| UCCGAGCAAUAUUACGGGGU | -2.7 ± 0.2 | -2.45 ± 0.28 |
| UCCGAGCAAUAUUACGGUGU | -1.74 ± 0.1 | -2.28 ± 0.17 |

— the supplement of paper PMC7877785
